Patent US5844093

Assays:
[1] = biological target: EGFR on EGFR-bearing tumor cells (human) (UniProt P00533); assay: flow cytometry, MDA MB 231 cells, crude bacterial supernatant
[2] = biological target: EGFR on EGFR-bearing tumor cells (human) (UniProt P00533); assay: flow cytometry, A431 cells, crude bacterial supernatant
[3] = biological target: EGFR on EGFR-bearing tumor cells (human) (UniProt P00533); assay: flow cytometry, HT29 cells, crude bacterial supernatant

mean of arbritary fluorescence units (arbitrary fluorescence units) [1]: 21.3
mean of arbritary fluorescence units (arbitrary fluorescence units) [2]: 85.5
mean of arbritary fluorescence units (arbitrary fluorescence units) [3]: 2.5
Substance: scFv derived from MAb 425
